T1: full length human LEPR on cells (human, UniProt P48357 22-1165)
T1 construct: also called HEK293/Stat3-luc/hLEPR-FL; hLEPR-FL
T1 sequence: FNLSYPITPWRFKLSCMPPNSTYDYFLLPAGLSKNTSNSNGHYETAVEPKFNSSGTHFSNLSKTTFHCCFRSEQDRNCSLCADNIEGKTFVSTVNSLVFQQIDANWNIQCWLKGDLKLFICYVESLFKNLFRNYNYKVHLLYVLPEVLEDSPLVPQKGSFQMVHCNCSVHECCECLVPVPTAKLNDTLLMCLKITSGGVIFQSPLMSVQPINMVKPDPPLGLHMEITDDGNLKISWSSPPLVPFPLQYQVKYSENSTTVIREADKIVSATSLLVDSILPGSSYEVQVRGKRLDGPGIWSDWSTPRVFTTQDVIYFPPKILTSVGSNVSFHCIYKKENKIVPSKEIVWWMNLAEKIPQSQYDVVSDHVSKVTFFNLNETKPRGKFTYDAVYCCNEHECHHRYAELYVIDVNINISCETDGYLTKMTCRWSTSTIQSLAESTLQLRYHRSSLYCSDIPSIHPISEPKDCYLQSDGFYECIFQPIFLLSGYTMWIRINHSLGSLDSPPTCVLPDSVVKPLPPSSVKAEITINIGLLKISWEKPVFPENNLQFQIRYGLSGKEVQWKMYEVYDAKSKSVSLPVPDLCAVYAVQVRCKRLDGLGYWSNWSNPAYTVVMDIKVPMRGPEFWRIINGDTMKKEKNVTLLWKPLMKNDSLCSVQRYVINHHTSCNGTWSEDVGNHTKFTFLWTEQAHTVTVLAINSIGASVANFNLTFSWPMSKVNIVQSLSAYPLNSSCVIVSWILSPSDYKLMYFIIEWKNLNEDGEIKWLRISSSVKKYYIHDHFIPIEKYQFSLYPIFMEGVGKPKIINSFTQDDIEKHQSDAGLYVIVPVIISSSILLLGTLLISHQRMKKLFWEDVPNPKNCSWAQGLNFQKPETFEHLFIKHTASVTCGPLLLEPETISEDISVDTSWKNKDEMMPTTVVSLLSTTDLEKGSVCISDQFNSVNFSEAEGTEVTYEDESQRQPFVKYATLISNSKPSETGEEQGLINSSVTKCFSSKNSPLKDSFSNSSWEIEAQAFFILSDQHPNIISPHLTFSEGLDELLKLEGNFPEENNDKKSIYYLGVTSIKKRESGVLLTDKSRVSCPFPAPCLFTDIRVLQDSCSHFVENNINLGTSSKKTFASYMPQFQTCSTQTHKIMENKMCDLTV

B1: H4H16650P2 (antibody, human IgG4, V domains shown)
VH: QVQLVESGGGVVQPGKSLRLSCVASGFTFSSDAMYWVRQAPGKGLEWVAVIYYDGNYQYYEDSVKGRFTISRDNSQNTLDLQMNSLRVDDTAVYFCARLNWDYWYLDLWGRGTLVTVSS
VL: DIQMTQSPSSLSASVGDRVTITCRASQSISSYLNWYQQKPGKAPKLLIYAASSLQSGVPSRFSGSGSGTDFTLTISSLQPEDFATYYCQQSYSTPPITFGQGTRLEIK
notes: Fully human antibody with human IgG4 Fc (H4H prefix)
B2: H4H16679P2 (antibody, human IgG4, V domains shown)
VH: QVQLVESGGGVVQPGRSLRLSCTASGFTFSSYAMYWVRQAPGKGLEWVSVIYYDGSYKYYADSVKGRFTISRDNSKNTLYLQMDSLRAEDTAVYYCASYNWNYWYFDFWGRGTLVTVSS
VL: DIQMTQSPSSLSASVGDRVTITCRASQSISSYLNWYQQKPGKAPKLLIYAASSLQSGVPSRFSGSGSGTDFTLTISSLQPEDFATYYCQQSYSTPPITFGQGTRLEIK
notes: as for B1
B3: H4H17321P2 (antibody, human IgG4, V domains shown)
VH: QVQLVESGGGVVQPGRSLRLSCEASGFSSSDNAMYWVRQAPGKGLEWVSVIYHDGSYKYYEDSVKGRFTIARDNSKNTLYLQMNSLRAEDTAVYYCARYNWNHWYFDVWGRGTLVTVSS
VL: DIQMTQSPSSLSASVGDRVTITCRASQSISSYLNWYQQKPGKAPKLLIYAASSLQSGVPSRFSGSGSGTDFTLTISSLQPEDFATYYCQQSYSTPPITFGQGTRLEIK
notes: as for B1
B4: H4H17319P2 (antibody, human IgG4, V domains shown)
VH: QVQLVESGGSVVQPGRSLRLSCAASGFTFSTYAMYWVRQTPGKGLEWVAVLYSDGSNKYYIDSVKGRFTISRDTSTNTLYLQMSSLRADDSALYYCARLNWDYWYFDLWGRGTLVTVSS
VL: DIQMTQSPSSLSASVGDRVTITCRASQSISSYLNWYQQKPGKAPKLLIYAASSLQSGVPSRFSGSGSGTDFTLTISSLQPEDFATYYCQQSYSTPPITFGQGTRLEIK
notes: as for B1

The binders below were run against T1, full length human LEPR on cells (assay: FACS, HEK293/Stat3-luc/hLEPR-FL, 70 nM Ab).

Row | Binding Ratio | Binder
1 | 42 fold over unstained | B1
2 | 51 fold over unstained | B2
3 | 46 fold over unstained | B3
4 | 47 fold over unstained | B4

The binders below were run against T2, preformed complex of hLEPR-MMH and human Leptin (human, UniProt P41159 22-167) (assay: SPR, mAb over preformed hLEPR-MMH:Leptin complex, 25C).
T2 construct: also called hLEPR-MMH: human Leptin complex; Leptn;LEPR
Protocol: The entire study was performed in 10 mM HEPES pH 7.4, 150 mM NaCl, 3 mM EDTA, and 0.05% v/v Surfactant Tween-20 (HBS-ET running buffer) at 25° C.

T2 sequence (P41159 22-167 limits assumed, one chain of several): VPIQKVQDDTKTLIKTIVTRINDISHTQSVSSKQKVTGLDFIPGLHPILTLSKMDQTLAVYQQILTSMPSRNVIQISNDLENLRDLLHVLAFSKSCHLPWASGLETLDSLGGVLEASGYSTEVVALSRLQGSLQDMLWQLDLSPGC

Row | 200 nM mAb Bound (RU) | Binder
5 | 81 RU | B1
6 | 90 RU | B2
7 | 92 RU | B4

From patent US20250051465A1 (published 2025)
